Measurements: paper PMC7690628 (Pharmaceuticals, 2020)

Key:
CYP3A4 = CYP3A4 (Homo sapiens, UniProt P08684); test: biochemical
purified protein = substrate: O=C(CCc1ccc(O)cc1)c1c(O)cc(O)cc1O; test: purified protein; conditions: heme

CYP3A4, sequence (P08684 2-503): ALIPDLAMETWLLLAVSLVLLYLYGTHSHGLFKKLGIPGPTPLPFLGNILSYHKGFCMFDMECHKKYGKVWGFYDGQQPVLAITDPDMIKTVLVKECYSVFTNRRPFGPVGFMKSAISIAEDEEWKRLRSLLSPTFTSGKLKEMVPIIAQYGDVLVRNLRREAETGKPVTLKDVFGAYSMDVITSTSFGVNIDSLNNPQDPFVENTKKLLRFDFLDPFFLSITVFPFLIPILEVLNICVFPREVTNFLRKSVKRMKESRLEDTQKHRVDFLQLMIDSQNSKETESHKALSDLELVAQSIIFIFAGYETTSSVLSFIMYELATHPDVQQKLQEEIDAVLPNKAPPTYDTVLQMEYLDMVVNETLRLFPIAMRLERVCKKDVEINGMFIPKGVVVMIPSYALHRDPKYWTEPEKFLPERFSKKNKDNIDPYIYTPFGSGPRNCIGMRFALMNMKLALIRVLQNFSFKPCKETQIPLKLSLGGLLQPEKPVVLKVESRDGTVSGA
CYP3A4, sequence (P00388 2-678 partner): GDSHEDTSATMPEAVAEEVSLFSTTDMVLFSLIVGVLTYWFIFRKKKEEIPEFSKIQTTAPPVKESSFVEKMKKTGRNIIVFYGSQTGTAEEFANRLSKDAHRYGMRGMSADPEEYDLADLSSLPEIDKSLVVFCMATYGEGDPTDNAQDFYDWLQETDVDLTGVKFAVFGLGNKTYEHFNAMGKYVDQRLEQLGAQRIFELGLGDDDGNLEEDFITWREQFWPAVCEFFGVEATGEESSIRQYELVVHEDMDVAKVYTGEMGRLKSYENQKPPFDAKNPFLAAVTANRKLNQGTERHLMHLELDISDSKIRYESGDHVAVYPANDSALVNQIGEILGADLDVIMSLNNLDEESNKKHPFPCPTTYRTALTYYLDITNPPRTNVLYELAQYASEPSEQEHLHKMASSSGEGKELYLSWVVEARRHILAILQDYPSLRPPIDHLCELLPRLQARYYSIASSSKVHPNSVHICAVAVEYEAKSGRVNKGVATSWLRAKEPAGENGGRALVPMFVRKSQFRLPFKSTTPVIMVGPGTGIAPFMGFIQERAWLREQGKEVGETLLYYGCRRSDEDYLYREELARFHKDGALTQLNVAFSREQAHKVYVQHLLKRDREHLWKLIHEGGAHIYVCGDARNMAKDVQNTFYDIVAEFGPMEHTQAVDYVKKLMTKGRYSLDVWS

IC50 (CYP3A4)	Molecule	Km (purified protein)	kcat (purified protein)	kcat/Km (purified protein)
13 µM	O=C(CCc1ccc(O)cc1)c1c(O)cc(O)cc1O [phloretin, 3-(4-hydroxyphenyl)-1-(2,4,6-trihydroxyphenyl)propan-1-one]			
	CYP2C19 (Homo sapiens) (protein) MDPFVVLVLCLSCLLLLSIWRQSSGRGKLPPGPTPLPVIGNILQIDIKDVSKSLTNLSKIYGPVFTLYFGLERMVVLHGYEVVKEALIDLGEEFSGRGHFPLAERANRGFGIVFSNGKRWKEIRRFSLMTLRNFGMGKRSIEDRVQEEARCLVEELRKTKASPCDPTFILGCAPCNVICSIIFQKRFDYKDQQFLNLMEKLNENIRIVSTPWIQICNNFPTIIDYFPGTHNKLLKNLAFMESDILEKVKEHQESMDINNPRDFIDCFLIKMEKEKQNQQSEFTIENLVITAADLLGAGTETTSTTLRYALLLLLKHPEVTAKVQEEIERVIGRNRSPCMQDRGHMPYTDAVVHEVQRYIDLIPTSLPHAVTCDVKFRNYLIPKGTTILTSLTSVLHDNKEFPNPEMFDPRHFLDEGGNFKKSNYFMPFSAGKRICVGEGLARMELFLFLTFILQNFNLKSLIDPKDLDTTPVVNGFASVPPFYQLCFIPV	208 ± 50 µM	0.0967 s⁻¹	467 M⁻¹ s⁻¹
